Source: the supplement of paper PMC7877785
± gives the uncertainty stated by the source.

Test: self-splicing fitness, log relative to wild type (ln ratio); higher = more splicing; Tetrahymena group I intron in knt gene, E. coli kanamycin selection, DiMSum; sequences stand for … in CUCUCU…GGAGGGAAAAGUUAUCAGGCAUGCACCUGGUAGCUAGUCUUUAAACCAAUAGAUUGCAUCGGUUUAAAAGGCAAGACCGUCAAAUUGCGGGAAAGGGGUCAACAGCCGUUCAGUACCAAGUCUCAGGGGAAACUUUGAGAUGGCCUUGCAAAGGGUAUGGUAAUAAGCUGACGGACAUGGUCCUAACCACGCAGCCAAGUCCUAAGUCAACAGAUCUUCUGUUGAUAUGGAUGCAGUUCACAGACUAAAUGUCGGUCGGGGAAGAUGUAUUCUUCUCAUAAGAUAUAGUCGGACCUCUCCUUAAUGGGAGCUAGCGGAUGAAGUGAUGCAACACUGGAGCCGCUGGGAACUAAUUUGUAUGCGAAAGUAUAUUGAUUAGUUUUGGAGUACUCGUGGUCG
How it was run: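 Pooled colonies went to amplicon sequencing on an Illumina HiSeq 2500 after six replicate transformations. The plates were LB agar with 100 μg/mL carbenicillin, 50 μM IPTG and 0.2% rhamnose, with or without 25 μg/mL kanamycin, incubated overnight at 37°C or 30°C. The E. coli BL21(DE3) library had all eight P1ex-region intron nucleotides randomised, the intron placed in the knt kanamycin-resistance gene on pET-22b(+). DiMSum fitness is the error-weighted combination of replicate fold changes, kanamycin against none, normalised to wild type.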

| Sequence | self-splicing fitness (ln) (30 °C) | self-splicing fitness (ln) (37 °C) |
| --- | --- | --- |
| UUACAGCAAUAUUACGGUUU | -0.925 ± 0.046 | 0.136 ± 0.066 |
| AUCGAGCAAUAUUACGUUCA | -0.62 ± 0.095 | -0.544 ± 0.13 |
| CUAAAGCAAUAUUACGGAUG | -0.152 ± 0.049 | -0.202 ± 0.069 |
| GAACAGCAAUAUUACGAUGG | -3.04 ± 0.19 | -1.17 ± 0.13 |
| CUAGAGCAAUAUUACGGCGG | -0.275 ± 0.075 | 0.501 ± 0.1 |
| AAUAAGCAAUAUUACGGACC | -1.54 ± 0.12 | -0.72 ± 0.15 |
| UGAAAGCAAUAUUACGCCCA | -0.309 ± 0.11 | 0.296 ± 0.16 |
| UACCAGCAAUAUUACGAAAU | -2.64 ± 0.14 | -1.26 ± 0.13 |
| CUAGAGCAAUAUUACGCAGA | -2.47 ± 0.37 | -3.6 ± 0.33 |
| AGCCAGCAAUAUUACGGGAC | -2.67 ± 0.22 | -2.7 ± 0.27 |
| AAAAAGCAAUAUUACGUAUG | -2.02 ± 0.11 | -1.63 ± 0.13 |
| UUUCAGCAAUAUUACGUCUC | -3.39 ± 0.4 | -0.735 ± 0.17 |
| CGGAAGCAAUAUUACGAAGG | -1.17 ± 0.11 | -0.983 ± 0.18 |
| UCAUAGCAAUAUUACGAAAC | -2.6 ± 0.25 | – |
| GGACAGCAAUAUUACGGCUG | -3.23 ± 0.31 | -0.371 ± 0.18 |
| ACUGAGCAAUAUUACGGCGC | -1.09 ± 0.088 | -0.47 ± 0.11 |
| GUAAAGCAAUAUUACGCUUA | -1.27 ± 0.11 | -0.77 ± 0.14 |
| CUCUAGCAAUAUUACGUUUU | -4.1 ± 0.22 | -3.15 ± 0.16 |
| UGGUAGCAAUAUUACGGUAU | -3.64 ± 0.32 | -1.87 ± 0.4 |
| CUUUAGCAAUAUUACGCUCU | -2.15 ± 0.22 | -1.3 ± 0.26 |
| GAUUAGCAAUAUUACGAGCU | -1.23 ± 0.088 | -0.791 ± 0.16 |
| CGCUAGCAAUAUUACGCUUC | -2.39 ± 0.28 | -2.39 ± 0.39 |
| AACUAGCAAUAUUACGUAUA | -2.05 ± 0.11 | -0.938 ± 0.12 |
| GUCUAGCAAUAUUACGUUGU | -0.779 ± 0.055 | -0.582 ± 0.065 |

| Sequence | self-splicing fitness (ln) (30 °C) | self-splicing fitness (ln) (37 °C) |
| --- | --- | --- |
| CGACAGCAAUAUUACGAUUC | -3.6 ± 0.14 | -0.756 ± 0.08 |
| CUAGAGCAAUAUUACGGGAU | -2.94 ± 0.17 | -1.96 ± 0.23 |
| CUGUAGCAAUAUUACGGGCU | -4.31 ± 0.3 | -3.2 ± 0.29 |
| GGGGAGCAAUAUUACGACGA | -2.56 ± 0.4 | -1.34 ± 0.28 |
| AAUAAGCAAUAUUACGCGUG | -0.604 ± 0.071 | -0.455 ± 0.089 |
| AGGUAGCAAUAUUACGGUCC | -0.156 ± 0.017 | 0.00993 ± 0.035 |
| CGCCAGCAAUAUUACGAUGG | -3.09 ± 0.15 | -2.72 ± 0.23 |
| UAUCAGCAAUAUUACGACAA | -0.495 ± 0.086 | 0.237 ± 0.097 |
| UCGCAGCAAUAUUACGAUGC | -3.73 ± 0.28 | -1.64 ± 0.2 |
| CCCGAGCAAUAUUACGUAGU | -3.11 ± 0.15 | -2.58 ± 0.19 |
| UAGCAGCAAUAUUACGCUGG | -2.87 ± 0.13 | -2.45 ± 0.15 |
| GUGCAGCAAUAUUACGAUUC | 0.476 ± 0.074 | -0.403 ± 0.073 |
| CCCCAGCAAUAUUACGUUGG | -3.95 ± 0.12 | -2.83 ± 0.14 |
| GAGUAGCAAUAUUACGAACU | -0.979 ± 0.14 | -0.323 ± 0.23 |
| UUGAAGCAAUAUUACGGAUG | 0.196 ± 0.1 | 0.219 ± 0.12 |
| AAUGAGCAAUAUUACGAGUA | -3.91 ± 0.25 | -2.54 ± 0.27 |
| CACUAGCAAUAUUACGAACU | -2.65 ± 0.1 | -1.99 ± 0.15 |
| UGUUAGCAAUAUUACGCAAU | -4.18 ± 0.42 | -2.67 ± 0.27 |
| UGAUAGCAAUAUUACGACAU | -2.587 ± 0.02 | -1.26 ± 0.035 |
| AUACAGCAAUAUUACGAUAG | -2.57 ± 0.18 | -3 ± 0.34 |
| UUUUAGCAAUAUUACGGAGC | -2.24 ± 0.38 | -2.37 ± 0.49 |
| UGCUAGCAAUAUUACGGCAC | -3.7 ± 0.42 | -2.19 ± 0.39 |
| UCCUAGCAAUAUUACGGUUU | -1.44 ± 0.083 | -1.16 ± 0.12 |
